No end group written: not given here.
Experiments:
[1] = Zeta potential by laser Doppler electrophoresis; assay type: physicochemical; details: Zetasizer Nano ZSP, n = 3, mean ± standard deviation
Procedure: (§1) A chloroform solution containing the (PSar25)3-block-PLLA35 (100 nmol, […]) with 4 mol% of TPP (Wako Pure Chemical, Osaka, Japan), 2 mol% of ICG-PLLA34, and 10 mol% maleimide-PSar56-PLLA30 was evaporated under reduced pressure to remove the solvent, forming a thin film on the surface of the glass test tube. Saline (Otsuka normal saline, Otsuka Pharmaceutical Factory, Tokushima, Japan) (50 μl) was added to the test tube, which was then placed at room temperature for 5 min. Then, 50 μl of the saline solution containing 50 nmol CPP and 10 nmol Tris(2-carboxyethyl)phosphine hydrochloride (Nacalai Tesque, Kyoto, Japan) was added to the solution (50 μl) in the test tube and stirred for 12 h at room temperature. In this procedure, lactosome formation and TPP encapsulation by the lactosome were expected. At the same time, maleimide-PSar56-PLLA30 in the lactosome is expected to react with CPP, which contains a cysteine residue at its C-terminus (Table 1). This lactosome mixture was diluted with 400 μl of saline, and passed through a 0.1 μm syringe filter (Membrane Solutions, Dallas, USA) to remove large aggregates. Low molecular weight molecules were excluded from the mixture using Amicon Ultra-0.5 (MWCO 50 kDa, Merck Millipore, Darmstadt, Germany). To analyze concentrations of CPP, TPP and ICG-PLLA34, absorption spectra of the lactosome complexes were measured using a BioSpec spectrometer (Shimadzu, Kyoto, Japan). The particle size, size distribution, polydispersity index (PDI), and zeta potential were measured by Zetasizer Nano ZSP (Malvern Instruments, Malvern, UK).
(§2) The particle sizes of lactosome complexes were measured by dynamic light scattering (DLS). The average particle sizes of the CPP-modified lactosomes were 36–49 nm, which were slightly larger than the unmodified lactosomes (34.2 nm) (Table 2, Figure 1(b)). The zeta potential value of CPP-modified lactosomes (e.g. Pep1-modified lactosome: 1.7 mV, EB1-modified lactosome: 1.6 mV) was higher than that of the unmodified lactosomes (–4.6 mV) (Table 2). The increase in the zeta potential seems to be due to positively charged CPPs.

[2] = Particle size and polydispersity by dynamic light scattering (DLS); assay type: physicochemical; details: Zetasizer Nano ZSP, n = 3, mean ± standard deviation; for Diameter: lactosomes in saline
Procedure: as §1, §2

CHO cells = experiment: Cellular uptake of ICG-labeled CPP-modified lactosomes; assay type: cell-based, Chinese hamster; details: for Cellular uptake level (in words): 10 nmol lactosome complexes, ICG fluorescence intensity divided by cell viability; for Cellular localization (co-localization with LysoTracker Green): 2 μM LysoTracker Green, further 3 h incubation; for ICG fluorescence in cells by fluorescence microscopy, compared to lactosomes without CPP: after washing
Procedure: CHO cells were cultured at 37°C under 5% CO2 in Ham’s F12 medium (Wako Pure Chemical) supplemented with 10% fetal bovine serum (FBS, Nichirei Biosciences, Tokyo Japan), 100 units ml^–1 penicillin (Gibco; Thermo Fisher Scientific, Waltham, Massachusetts, USA), and 100 μg ml^–1 streptomycin (Gibco; Thermo Fisher Scientific). The cells were seeded at a density of 2 × 10^4 cells/well in the 96-well plate, and incubated at 37°C under 5% CO2 overnight. The cells were then incubated at 37°C for 2 h with ICG-labeled lactosomes modified with CPPs (Tat, PTD4, DPV3, MPG^ΔNLS, R9MPG, Pep1, or EB1) dissolved in 200 μl T buffer. The lactosome solution was exchanged for Ham’s F12 medium before the fluorescence imaging. The cellular fluorescence images were obtained by fluorescence microscopy using an Olympus IX71 microscope (Olympus, Tokyo, Japan) with a 40 × objective lens and a U-DM-CY7–3 mirror unit.
LysoTracker Green (Thermo Fisher Scientific) was used for investigating cellular localization of CPP-modified lactosomes. After incubation of the cells with CPP-modified ICG-labeled lactosomes, the lactosome solution was exchanged with Ham’s F12 medium containing 2 μM LysoTracker Green. The cells were further incubated for 3 h. Then, the cell medium was replaced with Ham’s F12 medium, and fluorescence images were obtained.
To evaluate the cellular uptake of the lactosome complexes, the ICG fluorescence images were obtained using an IVIS spectrum system (Xenogen, Hopkinton, Massachusetts USA) with a filter set specific for ICG (excitation at 745 nm and emission at 840 ± 10 nm). The ICG fluorescence intensity was estimated from the photon counts of the images. Then, the cell medium was replaced with solution containing 10 μl of Cell Counting Kit-8 solution (Dojindo, Kumamoto, Japan) and 90 μl of Ham’s F12 medium, and the cells were incubated for an additional 1.5 h. After incubation, the cell viability was measured by absorbance at 450 nm using the microplate reader SunriseR (Tecan Japan, Kanagawa, Japan). Lactosome uptake levels were calculated by dividing ICG fluorescence intensity by cell viability of each well.

NCI-N87 cells = experiment: Photoinduced cell killing (PDT treatment) with CPP/TPP-lactosomes, Cell Counting Kit-8; assay type: cell-based, human; details: 1.5 h at 37°C in T buffer, irradiation 340–390 nm, 200 mW cm^–2, 100 s, then 24 h culture, n = 3
Procedure: NCI-N87 cells were cultured at 37°C under 5% CO2 in RPMI1640 medium (Wako Pure Chemical) supplemented with 10% FBS, 100 units ml^–1 penicillin, and 100 μg ml^–1 streptomycin. NCI-N87 cells were seeded at a density of 4 × 10^4 cells/well in a 96-well plate, and incubated at 37°C for two days before treatment with the lactosome complex. CHO cells were cultured and seeded as described above. The effect of treatment with the TPP-loaded lactosomes and light on cell viability, which is related to PDT efficacy, was evaluated as follows: TPP-loaded lactosomes modified with CPPs (Pep1 or EB1) dissolved in 200 μl of T buffer (20 mM HEPES-KOH (pH 7.4), 115 mM NaCl, 5.4 mM KCl, 1.8 mM CaCl2, 0.8 mM MgCl2, and 13.8 mM glucose) were added to NCI-N87 cells (70% confluent) in the 96-well plate. The cells were incubated at 37°C for 1.5 h. After the lactosome solution was exchanged for T buffer, the cells were irradiated at 340–390 nm at 200 mW cm^–2 for 100 s. After irradiation, the cells were further incubated for 24 h at 37°C under 5% CO2 in the medium. Then, the cell medium was exchanged for the solution containing 10 μl of Cell Counting Kit-8 solution and 90 μl of RPMI1640 medium, and the cells were incubated at 37°C for 2 h. The cell viability was measured by the absorbance at 450 nm using a microplate reader SunriseR. […]

PANC-1 tumor = experiment: In vivo ICG fluorescence imaging of tumor-bearing mice; parameters: species or system mice (BALB/c nu/nu); details: tail vein injection, imaging 24 h after injection, IVIS; three mice
Procedure: (§3) Six-week-old male nude mice (BALB/c nu/nu) were purchased from Charles River. Five weeks before the imaging, PANC-1 cells (1 × 10^7) suspended in 100 μl of 50% Matrigel Matrix (Corning Life Sciences, Corning, New York USA) in phosphate buffered saline was subcutaneously inoculated into the front left leg of mice. Two weeks after the first transplantation, NCI-N87 cells (4 × 10^6) were suspended in the Matrigel solution and subcutaneously inoculated into the front right leg of mice. Three weeks after the second transplantation, CPP/TPP/ICG-lactosomes were injected into the tumor-bearing mouse via the tail vein. After 24 h, ICG fluorescence images were taken using the IVIS spectrum system (excitation at 745 nm and emission at 840 ± 10 nm, field of view = 12.5 cm (width and height), f/stop = 2, binning = 4, and exposure time at 3 s). During the imaging process, the mice were anesthetized using 3.0% isoflurane gas in oxygen flow (0.5 l min^–1).

NCI-N87 tumor = experiment: as above; parameters: species or system mice (BALB/c nu/nu); details: tail vein injection, imaging 24 h after injection, IVIS; three mice
Procedure: as §3

| Substance | Zeta potential [1] | Diameter [2] | PDI (polydispersity index) [2] | also measured |
| --- | --- | --- | --- | --- |
| GALFLGFLGAAGSTMGAWSQPKSKRKV-C [MPG^ΔNLS, A3B-type lactosome modified with the CPP MPG^ΔNLS via maleimide-PSar56-PLLA30] | −2.9±0.6 mV | 49.1±0.5 nm | 0.29±0.02 |  |
| KETWWETWWTEWSQPKKKRKV-C [Pep1, A3B-type lactosome modified with the CPP Pep1 via maleimide-PSar56-PLLA30] | 1.7±0.1 mV | 37.7±0.6 nm | 0.13±0.02 | Cellular uptake level relative to the EB1-modified lactosomes (CHO cells; 10 nmol lactosome complexes in T buffer, 2 h, 37°C, ICG fluorescence intensity (IVIS, ex 745 nm, em 840 nm) divided by cell viability (Cell Counting Kit-8), mean, n = 4): 0.62; Cellular uptake level (in words) (CHO cells; 2 h, 37°C): highly internalized; Cellular localization (co-localization with LysoTracker Green) (CHO cells): localized mainly in acidic organelles, including endosomes and lysosomes; ICG fluorescence in cells by fluorescence microscopy, compared to lactosomes without CPP (CHO cells; 2 h, 37°C): significantly strong ICG fluorescence |
| KETWWETWWTEWSQPKKKRKV-C [Pep1/TPP-lactosomes, Pep1-modified lactosome loaded with the photosensitizer TPP] |  |  |  | Killing of NCI-N87 cells compared to the experiment without CPP/TPP-lactosomes (NCI-N87 cells): 67% |
| LIRLWSHLIHIWFQNRRLKWKKK-C (LIRLWSHLIHIWFQNRRLKWKKKC; also: C-terminal Cys linked via maleimide to PSar56-PLLA30 (lactosome)) [EB1, A3B-type lactosome modified with the CPP EB1 via maleimide-PSar56-PLLA30] | 1.6±0.3 mV | 38.3±0.2 nm | 0.12±0.01 | Cellular uptake level (in words) (CHO cells; 2 h, 37°C): most abundantly internalized; Cellular localization (co-localization with LysoTracker Green) (CHO cells): localized mainly in acidic organelles, including endosomes and lysosomes; ICG fluorescence in cells by fluorescence microscopy, compared to lactosomes without CPP (CHO cells; 2 h, 37°C): significantly strong ICG fluorescence |
| LIRLWSHLIHIWFQNRRLKWKKK-C [EB1/TPP-lactosomes, EB1-modified lactosome loaded with the photosensitizer TPP] |  |  |  | Killing of NCI-N87 cells compared to the experiment without CPP/TPP-lactosomes (NCI-N87 cells): 89% |
| LIRLWSHLIHIWFQNRRLKWKKK-C [EB1/TPP/ICG-lactosomes, lactosome complex containing EB1, TPP, and ICG] |  |  |  | Accumulation in PANC-1 tumor (ICG fluorescence) (PANC-1 tumor): only slight ICG fluorescence was detected; Accumulation in NCI-N87 tumor (ICG fluorescence) (NCI-N87 tumor): accumulated in NCI-N87 tumors and liver |
| RKKRRRESRKKRRRES-C (RKKRRRESRKKRRRESC; also: C-terminal Cys linked via maleimide to PSar56-PLLA30 (lactosome)) [DPV3, A3B-type lactosome modified with the CPP DPV3 via maleimide-PSar56-PLLA30] | −3.7±0.3 mV | 37.0±0.4 nm | 0.12±0.01 |  |
| RRRRRRRRRGALFLAFLAAALSLMG-C (RRRRRRRRRGALFLAFLAAALSLMGC; also: C-terminal Cys linked via maleimide to PSar56-PLLA30 (lactosome)) [R9MPG, A3B-type lactosome modified with the CPP R9MPG via maleimide-PSar56-PLLA30] | −2.7±0.9 mV | 43.9±1.5 nm | 0.22±0.01 |  |
| YARAAARQARA-C [PTD4, A3B-type lactosome modified with the CPP PTD4 via maleimide-PSar56-PLLA30] | −4.2±0.3 mV | 37.0±0.4 nm | 0.14±0.02 |  |
| YGRKKRRQRRR-C [Tat, A3B-type lactosome modified with the CPP Tat via maleimide-PSar56-PLLA30] | −3.6±0.1 mV | 36.2±0.3 nm | 0.10±0.01 |  |
